The results in this text go back to publication PMC9241815, “Role of the Two-Component System CiaRH in the Regulation of Efflux Pump SatAB and Its Correlation with Fluoroquinolone Susceptibility”.

The target in data set [1] is CiaR, phosphorylated (Streptococcus suis (WT strain, name not in the material)) (UniProt A0A0H3MUU9). Description: BLI. Particulars: EMSA: Beyotime EMSA binding buffer, 20 min, room temperature, 4% native PAGE; proteins dialyzed in 25 mM Tris pH 7.4, 150 mM NaCl, 5% glycerol, 0.5 mM EDTA ….
The target of data set [2] is SatR (Streptococcus suis (WT strain, name not in the material)) (UniProt G9CHX9). Description: BLI. Particulars: EMSA: Beyotime EMSA binding buffer, 20 min, room temperature, 4% native PAGE; proteins dialyzed in 25 mM Tris pH 7.4, 150 mM NaCl, 5% glycerol, 0.5 mM EDTA …. In general terms: Mobility shift assays separate free from complexed probe on a gel.
Data set [3] deals with T1, SatR (Streptococcus suis (WT strain, name not …, UniProt G9CHX9 1-149)). Description: EMSA; 800 ng SatR; EMSA: Beyotime EMSA binding buffer, 20 min, room temperature, 4% native PAGE; proteins dialyzed in 25 mM Tris pH 7.4, 150 mM NaCl, 5% glycerol, 0.5 mM EDTA, 1 mM DTT; BLI (Octet RED96) conditions not in material. Conditions: protein: recombinant; tags: C-terminal 6xHis (from primer; pET-30a(+)); chain copies: 2; label: biotin 3' end; blunt.

In data set [4] the target is T1, SatR. Description: EMSA; 200-800 ng SatR; EMSA: Beyotime EMSA binding buffer, 20 min, room temperature, 4% native PAGE; proteins dialyzed in 25 mM Tris pH 7.4, 150 mM NaCl, 5% glycerol, 0.5 mM EDTA, 1 mM DTT; BLI (Octet RED96) conditions not in material. Particulars: protein: recombinant; tags: C-terminal 6xHis (from primer; pET-30a(+)); chain copies: 2; label: biotin 3' end; blunt.

For satAB promoter (Octet), the Kd came to 434 nM in data set [1] and 61 nM in data set [2].

B1: satAB internal fragment (EMSAneg-satR) (dsDNA)
DNA 1: CTCGCTTGGCCTTGGTGACCATTGCTTCTACGCCAGTTGCCTTGATTGCCTTGGTCGTT
DNA 2: AACGACCAAGGCAATCAAGGCAACTGGCGTAGAAGCAATGGTCACCAAGGCCAAGCGAG
Regarding B1, the binding result with SatR [3] is “no binding”.

B2: satRAB promoter EMSA probe (dsDNA)
DNA 1: TTGACAATAGTTCTTAAGAGAACTATAATAGTTCTCATGGTAATTATTTTCGTAGAAAG
DNA 2: CTTTCTACGAAAATAATTACCATGAGAACTATTATAGTTCTCTTAAGAACTATTGTCAA
In the case of B2, in the data set with SatR [4], the binding result is “binds”.

Usually Kd stands for the constant that tells how readily two partners part at equilibrium. High values mean a looser complex, low ones a tighter complex.
